The values that follow come from patent US20220089698A1 (published 2022).

One assay addresses HIV gp120 CAAN (HIV). Description: single-point ELISA. (In general: ELISA stands for enzyme-linked immunosorbent assay.)
For the next assay, the target named is HIV gp120 Bal (HIV). The assay is described as follows: single-point ELISA. Also: test concentration or dose not given here.

B1: 1.4.1-1 (antibody, human IgG1, kappa)
heavy: QVQLVQSGAAVTKPGASVRVSCEASGYNIRDYFIHWWRQAPGQGLQWVGWINPKTGQPNNPRQFQGRVSLTRHASWDFDTFSFYMDLKALRSDDTAVYFCARQRSDYWDFDVWGSGTQVTVSSASTKGPSVFPLAPSSKSTSGGTAALGCLVKDYFPEPVTVSWNSGALTSGVHTFPAVLQSSGLYSLSSVVTVPSSSLGTQTYICNVNHKPSNTKVDKKVEPKSCDKTHTCPPCPAPELLAGPDVFLFPPKPKDTLMISRTPEVTCVVVDVSHEDPEVKFNWYVDGVEVHNAKTKPREEQYNSTYRVVSVLTVLHQDWLNGKEYKCKVSNKALPLPEEKTISKAKGQPREPQVYTLPPSREEMTKNQVSLTCLVKGFYPSDIAVEWESNGQPENNYKTTPPVLDSDGSFFLYSKLTVDKSRWQQGNVFSCSVLHEALHSHYTQKSLSLSPGK
light: DIQMTQSPSSLSASVGDTVTITCQANGYLNWYQQRRGKAPKLLIYDGSKLERGVPSRFSGRRWGQEYNLTINNLQPEDIATYFCQVYEFVVPGTRLDLKRTVAAPSVFIFPPSDEQLKSGTASVVCLLNNFYPREAKVQWKVDNALQSGNSQESVTEQDSKDSTYSLSSTLTLSKADYEKHKVYACEVTHQGLSSPVTKSFNRGEC
Consider B1, for which the “ELISA (A450)” value came out at 0.96 A450 in the assay with HIV gp120 CAAN and 1.04 A450 with HIV gp120 Bal.

B2: 1.8.1-1 (antibody, human IgG1, kappa)
heavy: QVQLVQSGAEVTKPGASVRVSCEASGYNIRDYFIHWWRQAPGQGLQWVGWINPKTGQPNNPRQFQGRVSLTRHASWDFDTFSFYMDLKALRSDDTAVYFCARQRSDYWDFDVWGSGTQVTVSSASTKGPSVFPLAPSSKSTSGGTAALGCLVKDYFPEPVTVSWNSGALTSGVHTFPAVLQSSGLYSLSSVVTVPSSSLGTQTYICNVNHKPSNTKVDKKVEPKSCDKTHTCPPCPAPELLAGPDVFLFPPKPKDTLMISRTPEVTCVVVDVSHEDPEVKFNWYVDGVEVHNAKTKPREEQYNSTYRVVSVLTVLHQDWLNGKEYKCKVSNKALPLPEEKTISKAKGQPREPQVYTLPPSREEMTKNQVSLTCLVKGFYPSDIAVEWESNGQPENNYKTTPPVLDSDGSFFLYSKLTVDKSRWQQGNVFSCSVLHEALHSHYTQKSLSLSPGK
light: DIQMTQSPSSLSASVGDTVTITCQANGYLNWYQQRRGKAPKLLIYDGSKLERGVPSRFSGRRWGQEYNLTINNLQPEDIATYFCQVYEFVVPGTRLDLKRTVAAPSVFIFPPSDEQLKSGTASVVCLLNNFYPREAKVQWKVDNALQSGNSQESVTEQDSKDSTYSLSSTLTLSKADYEKHKVYACEVTHQGLSSPVTKSFNRGEC
Turning to B2, the “ELISA (A450)” value with HIV gp120 CAAN is 0.9 A450; in the assay with HIV gp120 Bal it was 0.86 A450.

B3: 1.5.1-1 (antibody, human IgG1, kappa)
heavy: QVQLVQSGAAVTKPGASVRVSCKASGYNIRDYFIHWWRQAPGQGLQWVGWINPKTGQPNNPRQFQGRVSLTRHASWDFDTFSFYMDLKALRSDDTAVYFCARQRSDYWDFDVWGSGTQVTVSSASTKGPSVFPLAPSSKSTSGGTAALGCLVKDYFPEPVTVSWNSGALTSGVHTFPAVLQSSGLYSLSSVVTVPSSSLGTQTYICNVNHKPSNTKVDKKVEPKSCDKTHTCPPCPAPELLAGPDVFLFPPKPKDTLMISRTPEVTCVVVDVSHEDPEVKFNWYVDGVEVHNAKTKPREEQYNSTYRVVSVLTVLHQDWLNGKEYKCKVSNKALPLPEEKTISKAKGQPREPQVYTLPPSREEMTKNQVSLTCLVKGFYPSDIAVEWESNGQPENNYKTTPPVLDSDGSFFLYSKLTVDKSRWQQGNVFSCSVLHEALHSHYTQKSLSLSPGK
light: DIQMTQSPSSLSASVGDTVTITCQANGYLNWYQQRRGKAPKLLIYDGSKLERGVPSRFSGRRWGQEYNLTINNLQPEDIATYFCQVYEFVVPGTRLDLKRTVAAPSVFIFPPSDEQLKSGTASVVCLLNNFYPREAKVQWKVDNALQSGNSQESVTEQDSKDSTYSLSSTLTLSKADYEKHKVYACEVTHQGLSSPVTKSFNRGEC
For B3, the “ELISA (A450)” value worked out at 1.07 A450 in the assay with HIV gp120 CAAN and 0.92 A450 with HIV gp120 Bal.

B4: 1.6.1-1 (antibody, human IgG1, kappa)
heavy: QVQLLQSGAEVTKPGASVRVSCEASGYNIRDYFIHWWRQAPGQGLQWVGWINPKTGQPNNPRQFQGRVSLTRHASWDFDTFSFYMDLKALRSDDTAVYFCARQRSDYWDFDVWGSGTQVTVSSASTKGPSVFPLAPSSKSTSGGTAALGCLVKDYFPEPVTVSWNSGALTSGVHTFPAVLQSSGLYSLSSVVTVPSSSLGTQTYICNVNHKPSNTKVDKKVEPKSCDKTHTCPPCPAPELLAGPDVFLFPPKPKDTLMISRTPEVTCVVVDVSHEDPEVKFNWYVDGVEVHNAKTKPREEQYNSTYRVVSVLTVLHQDWLNGKEYKCKVSNKALPLPEEKTISKAKGQPREPQVYTLPPSREEMTKNQVSLTCLVKGFYPSDIAVEWESNGQPENNYKTTPPVLDSDGSFFLYSKLTVDKSRWQQGNVFSCSVLHEALHSHYTQKSLSLSPGK
light: DIQMTQSPSSLSASVGDTVTITCQANGYLNWYQQRRGKAPKLLIYDGSKLERGVPSRFSGRRWGQEYNLTINNLQPEDIATYFCQVYEFVVPGTRLDLKRTVAAPSVFIFPPSDEQLKSGTASVVCLLNNFYPREAKVQWKVDNALQSGNSQESVTEQDSKDSTYSLSSTLTLSKADYEKHKVYACEVTHQGLSSPVTKSFNRGEC
Take B4: the figures for the “ELISA (A450)” value with HIV gp120 CAAN and with HIV gp120 Bal were 0.9 A450 and 0.95 A450, respectively.

B5: 1.10.1-1 (antibody, human IgG1, kappa)
heavy: QVQLLQSGAAVTKPGASVRVSCEASGYNIRDYFMHWWRQAPGQGLQWVGWINPKTGQPNNPRQFQGRVSLTRHASWDFDTFSFYMDLKALRSDDTAVYFCARQRSDYWDFDVWGSGTQVTVSSASTKGPSVFPLAPSSKSTSGGTAALGCLVKDYFPEPVTVSWNSGALTSGVHTFPAVLQSSGLYSLSSVVTVPSSSLGTQTYICNVNHKPSNTKVDKKVEPKSCDKTHTCPPCPAPELLAGPDVFLFPPKPKDTLMISRTPEVTCVVVDVSHEDPEVKFNWYVDGVEVHNAKTKPREEQYNSTYRVVSVLTVLHQDWLNGKEYKCKVSNKALPLPEEKTISKAKGQPREPQVYTLPPSREEMTKNQVSLTCLVKGFYPSDIAVEWESNGQPENNYKTTPPVLDSDGSFFLYSKLTVDKSRWQQGNVFSCSVLHEALHSHYTQKSLSLSPGK
light: DIQMTQSPSSLSASVGDTVTITCQANGYLNWYQQRRGKAPKLLIYDGSKLERGVPSRFSGRRWGQEYNLTINNLQPEDIATYFCQVYEFVVPGTRLDLKRTVAAPSVFIFPPSDEQLKSGTASVVCLLNNFYPREAKVQWKVDNALQSGNSQESVTEQDSKDSTYSLSSTLTLSKADYEKHKVYACEVTHQGLSSPVTKSFNRGEC
Take B5: the “ELISA (A450)” value came to 0.94 A450 in the assay with HIV gp120 CAAN and 0.95 A450 with HIV gp120 Bal.

B6: 1.11.1-1 (antibody, human IgG1, kappa)
heavy: QVQLLQSGAAVTKPGASVRVSCEASGYNIRDYFMHWWRQAPGQGLQWVGWINPKTGQPNNPRQFQGRVSLTRHASWDFDTFSAYMDLKALRSDDTAVYFCARQRSDYWDFDVWGSGTQVTVSSASTKGPSVFPLAPSSKSTSGGTAALGCLVKDYFPEPVTVSWNSGALTSGVHTFPAVLQSSGLYSLSSVVTVPSSSLGTQTYICNVNHKPSNTKVDKKVEPKSCDKTHTCPPCPAPELLAGPDVFLFPPKPKDTLMISRTPEVTCVVVDVSHEDPEVKFNWYVDGVEVHNAKTKPREEQYNSTYRVVSVLTVLHQDWLNGKEYKCKVSNKALPLPEEKTISKAKGQPREPQVYTLPPSREEMTKNQVSLTCLVKGFYPSDIAVEWESNGQPENNYKTTPPVLDSDGSFFLYSKLTVDKSRWQQGNVFSCSVLHEALHSHYTQKSLSLSPGK
light: DIQMTQSPSSLSASVGDTVTITCQANGYLNWYQQRRGKAPKLLIYDGSKLERGVPSRFSGRRWGQEYNLTINNLQPEDIATYFCQVYEFVVPGTRLDLKRTVAAPSVFIFPPSDEQLKSGTASVVCLLNNFYPREAKVQWKVDNALQSGNSQESVTEQDSKDSTYSLSSTLTLSKADYEKHKVYACEVTHQGLSSPVTKSFNRGEC
Consider B6, for which the “ELISA (A450)” value with HIV gp120 CAAN was found to be 0.75 A450; in the assay with HIV gp120 Bal, 0.93 A450.

B7: 1.9.1-1 (antibody, human IgG1, kappa)
heavy: QVQLVQSGAEVKKPGASVRVSCKASGYNIRDYFIHWWRQAPGQGLQWVGWINPKTGQPNNPRQFQGRVSLTRHASWDFDTFSFYMDLKALRSDDTAVYFCARQRSDYWDFDVWGSGTQVTVSSASTKGPSVFPLAPSSKSTSGGTAALGCLVKDYFPEPVTVSWNSGALTSGVHTFPAVLQSSGLYSLSSVVTVPSSSLGTQTYICNVNHKPSNTKVDKKVEPKSCDKTHTCPPCPAPELLAGPDVFLFPPKPKDTLMISRTPEVTCVVVDVSHEDPEVKFNWYVDGVEVHNAKTKPREEQYNSTYRVVSVLTVLHQDWLNGKEYKCKVSNKALPLPEEKTISKAKGQPREPQVYTLPPSREEMTKNQVSLTCLVKGFYPSDIAVEWESNGQPENNYKTTPPVLDSDGSFFLYSKLTVDKSRWQQGNVFSCSVLHEALHSHYTQKSLSLSPGK
light: DIQMTQSPSSLSASVGDTVTITCQANGYLNWYQQRRGKAPKLLIYDGSKLERGVPSRFSGRRWGQEYNLTINNLQPEDIATYFCQVYEFVVPGTRLDLKRTVAAPSVFIFPPSDEQLKSGTASVVCLLNNFYPREAKVQWKVDNALQSGNSQESVTEQDSKDSTYSLSSTLTLSKADYEKHKVYACEVTHQGLSSPVTKSFNRGEC
For B7, the “ELISA (A450)” value with HIV gp120 CAAN was 0.98 A450; with HIV gp120 Bal, 1.08 A450.

B8: 1.7.1-1 (antibody, human IgG1, kappa)
heavy: QVQLLQSGAEVKKPGASVRVSCEASGYNIRDYFIHWWRQAPGQGLQWVGWINPKTGQPNNPRQFQGRVSLTRHASWDFDTFSFYMDLKALRSDDTAVYFCARQRSDYWDFDVWGSGTQVTVSSASTKGPSVFPLAPSSKSTSGGTAALGCLVKDYFPEPVTVSWNSGALTSGVHTFPAVLQSSGLYSLSSVVTVPSSSLGTQTYICNVNHKPSNTKVDKKVEPKSCDKTHTCPPCPAPELLAGPDVFLFPPKPKDTLMISRTPEVTCVVVDVSHEDPEVKFNWYVDGVEVHNAKTKPREEQYNSTYRVVSVLTVLHQDWLNGKEYKCKVSNKALPLPEEKTISKAKGQPREPQVYTLPPSREEMTKNQVSLTCLVKGFYPSDIAVEWESNGQPENNYKTTPPVLDSDGSFFLYSKLTVDKSRWQQGNVFSCSVLHEALHSHYTQKSLSLSPGK
light: DIQMTQSPSSLSASVGDTVTITCQANGYLNWYQQRRGKAPKLLIYDGSKLERGVPSRFSGRRWGQEYNLTINNLQPEDIATYFCQVYEFVVPGTRLDLKRTVAAPSVFIFPPSDEQLKSGTASVVCLLNNFYPREAKVQWKVDNALQSGNSQESVTEQDSKDSTYSLSSTLTLSKADYEKHKVYACEVTHQGLSSPVTKSFNRGEC
For the molecule B8, the “ELISA (A450)” value with HIV gp120 CAAN worked out at 1.04 A450; with HIV gp120 Bal, 0.98 A450.
